In experiment [1] the target is T1, human FcRn (R&D Systems Cat. No. 8639-Fc) (human, UniProt P55899 24-297; P61769 21-119). The experiment in a line: SPR, FcRn captured; Mean. Background: SPR reads the build-up and loss of mass on a sensor chip optically.
Experiment [2] addresses T1, human FcRn (R&D Systems Cat. No. …). The experiment in a line: SPR, FcRn captured; Expt 1.
Experiment [3] shares this target. Put plainly: SPR, FcRn captured; Expt 2.
Experiment [4] has the same target. Put plainly: SPR, FcRn captured; Expt 3.
Experiment [5] has the same target. Put plainly: SPR, FcRn captured via anti-His, pH 6.0.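 Also: SPR binding signal relative to the reference cell, corrected by subtracting the response of a blank sample of running buffer alone.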
In experiment [6] the target is T2, cynomolgus monkey FcRn (Sino Biological Cat. No. CT031-C08H) (cynomolgus monkey, UniProt Q8SPV9 24-297; Q8SPW0 21-119).
T2 construct: Bought protein, captured on an anti-histidine chip; also called cynomolgus FcRn
Put plainly: SPR, FcRn captured via anti-His, pH 6.0.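 Also: SPR binding signal relative to the reference cell, corrected by subtracting the response of a blank sample of running buffer alone.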

Experiment [7] concerns the target T3, mouse FcRn (Sino Biological Cat. No. CT029-M08H) (mouse, UniProt Q61559 22-297; P01887 21-119).
T3 construct: Bought protein, captured on an anti-histidine chip
T3 sequence (looked up): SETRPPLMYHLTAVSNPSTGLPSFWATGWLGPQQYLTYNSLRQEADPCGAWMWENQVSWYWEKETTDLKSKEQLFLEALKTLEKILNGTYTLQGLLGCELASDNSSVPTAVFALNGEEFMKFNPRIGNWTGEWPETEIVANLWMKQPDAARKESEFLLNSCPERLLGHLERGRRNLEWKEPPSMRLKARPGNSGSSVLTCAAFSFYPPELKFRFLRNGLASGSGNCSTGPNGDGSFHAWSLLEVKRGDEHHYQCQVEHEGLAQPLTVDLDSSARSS
T3 sequence (b2m, looked up): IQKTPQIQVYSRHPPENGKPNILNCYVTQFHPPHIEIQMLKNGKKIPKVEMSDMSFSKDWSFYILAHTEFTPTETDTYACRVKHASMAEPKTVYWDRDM
The experiment in a line: SPR, FcRn captured via anti-His, pH 6.0.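 Also: SPR binding signal relative to the reference cell, corrected by subtracting the response of a blank sample of running buffer alone.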

Experiment [8] deals with T4, Human C1q (Sigma Cat. No. 20476), HRP-labelled (human, UniProt P02745 23-245; P02746 28-253; P02747 29-245).
T4 construct: Coupled to horse-radish peroxidase with Lightning-Link kit; also called HRP-labelled C1q
Put plainly: ELISA, antibody coated, HRP-C1q; Expt 1, buffer alone 0.061. On the technique in general: An ELISA detects its analyte on a solid surface through an enzyme-linked reagent.

Experiment [9] has as its target T4, Human C1q (Sigma Cat. No. 20476), …. Put plainly: ELISA, antibody coated, HRP-C1q; Expt 2, buffer alone 0.091.
For experiment [10] the target is unchanged. The experiment in a line: ELISA, antibody coated, HRP-C1q; Expt 3, buffer alone 0.102.
Experiment [11] has the same target. Put plainly: ELISA, antibody coated, HRP-C1q; Expt 1, buffer alone 0.053.
The target is the same in experiment [12]. The experiment in a line: ELISA, antibody coated, HRP-C1q; Expt 2, buffer alone 0.051.
Experiment [13] addresses T5, C-terminus biotinylated human FcRn attached to Streptavidin-SmBiT (FcRn-SAv-SmBiT) (human, UniProt P55899 24-297; P61769 21-119, limits assumed, C-terminus biotinylated (AviTag), attached to Streptavidin-SmBiT).
T5 construct: Kit reagent; also called hFcRn-AviTag
The experiment in a line: NanoBiT FcRn competition immunoassay, competitor Tracer-LgBiT human IgG, pH 6.0.

For experiment [14], the target named is T6, Histidine-tagged recombinant human FcγRI (CD64) (human, UniProt P12314 16-288).
T6 construct: bought; also called Sino Biological Cat. No. 12056-H08H
The experiment in a line: SPR, captured His-receptor.

Experiment [15] deals with T7, mouse FcγRI (Sino Biological Cat. No. 50086-M08H) (mouse, UniProt P26151 25-297).
T7 construct: bought
T7 sequence (looked up): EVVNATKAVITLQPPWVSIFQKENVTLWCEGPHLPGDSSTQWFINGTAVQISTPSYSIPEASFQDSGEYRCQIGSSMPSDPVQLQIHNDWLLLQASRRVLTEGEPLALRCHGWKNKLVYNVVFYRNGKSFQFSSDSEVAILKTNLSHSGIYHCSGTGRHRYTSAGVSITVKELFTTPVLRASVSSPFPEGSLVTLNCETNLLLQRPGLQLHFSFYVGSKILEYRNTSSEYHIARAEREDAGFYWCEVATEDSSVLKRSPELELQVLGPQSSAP
Put plainly: SPR, captured His-receptor.

For experiment [16], the target named is T8, human FcγRIIA (R131, Sino Biological Cat. No. 10374-H08H) (human, UniProt P12318 34-218).
T8 construct: bought; also called human FcγRIIa R131 allele; FcγRII allele R131
T8 sequence (looked up): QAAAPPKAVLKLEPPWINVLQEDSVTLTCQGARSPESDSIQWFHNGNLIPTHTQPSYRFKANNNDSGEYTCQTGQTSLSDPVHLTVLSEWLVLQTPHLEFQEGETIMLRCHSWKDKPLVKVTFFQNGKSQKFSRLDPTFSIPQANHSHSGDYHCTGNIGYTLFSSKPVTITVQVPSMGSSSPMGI
Put plainly: SPR, captured His-receptor.

In experiment [17] the target is T9, human FcγRIIB (Sino Biological Cat. No. 10259-H08H) (human, UniProt P31994 43-217).
T9 construct: bought
T9 sequence (looked up): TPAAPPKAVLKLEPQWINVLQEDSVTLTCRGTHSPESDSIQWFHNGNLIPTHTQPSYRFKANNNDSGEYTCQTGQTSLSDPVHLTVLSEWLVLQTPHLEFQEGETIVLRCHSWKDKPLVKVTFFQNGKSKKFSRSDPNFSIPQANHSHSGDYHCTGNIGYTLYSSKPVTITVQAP
Put plainly: SPR, captured His-receptor.

In experiment [18] the target is T10, human FcγRIIIB (NA2 allotype, Sino Biological Cat. No. 11046-H08H) (human, UniProt O75015 17-200).
T10 construct: bought; also called human FcγRIIIb NA2 allele
The experiment in a line: SPR, captured His-receptor.

Experiment [19] addresses T11, CD3D/CD3E heterodimer (Sino Biologicals Cat. No. CT038-H2508H) (human, UniProt P04234 22-105; P07766 23-126).
T11 construct: bought; also called CD3 antigen; human CD3
Put plainly: ELISA, antigen coated, antibody 5 µg/mL.

B1: anti-CD20 (rituximab) human IgG1 wild-type reference (antibody)
heavy: not shown
light: QIVLSQSPAILSASPGEKVTMTCRASSSVSYIHWFQQKPGSSPKPWIYATSNLASGVPVRFSGSGSGTSYSLTISRVEAEDAATYYCQQWTSNPPTFGGGTKLEIKRTVAAPSVFIFPPSDEQLKSGTASVVCLLNNFYPREAKVQWKVDNALQSGNSQESVTEQDSKDSTYSLSSTLTLSKADYEKHKVYACEVTHQGLSSPVTKSFNRGEC
notes: 2-1 and 10.0 are separate preparations of the same antibody; also called 2-1; 10.0; copies: 2 + 2
For B1, the “Corrected and normalised response (% of wild-type reference)” value in experiment [1], in experiment [2], in [3] and in [4] was 100 % of wild-type reference in each case. Besides, the “Corrected response (RU)” value in experiment [5] came to 582 RU; in [6], 1320 RU; in experiment [7], 178 RU. In addition, the “Mean Absorbance” value is 2.63 absorbance (450 nm) in [8]; 2.21 absorbance (450 nm) in experiment [9]; 1.88 absorbance (450 nm) in experiment [10]; 1.83 absorbance (450 nm) in experiment [11]; 1.33 absorbance (450 nm) in [12]. In addition, in experiment [13], the “Mean binding activity (% of wild-type reference)” value was 100 % of wild-type reference.

B2: anti-CD20 (rituximab) human IgG1 L234A/L235A (LALA) (antibody)
heavy: not shown
light: B1 light
notes: EU numbering; also called 2-65; 10.16; copies: 2 + 2
On to B2, for which the “Corrected and normalised response (% of wild-type reference)” value is 93.3 % of wild-type reference in experiment [1], 92.8 % of wild-type reference in [2], 94.2 % of wild-type reference in experiment [3] and 92.9 % of wild-type reference in [4]. Also, the “Corrected response (RU)” value in experiment [5] came to 505 RU; in experiment [6], 1180 RU; in [7], 190 RU. The “Mean Absorbance” value is 0.078 absorbance (450 nm) in experiment [9] and 0.08 absorbance (450 nm) in experiment [10]. Besides, the “Mean binding activity (% of wild-type reference)” value in [13] is 70.1 % of wild-type reference.

B3: anti-CD20 (rituximab) human IgG1 N297Q (aglycosyl) (antibody)
heavy: not shown
light: B1 light
notes: EU numbering; also called 2-67; copies: 2 + 2
For the molecule B3, the “Corrected and normalised response (% of wild-type reference)” value in experiment [1] is 77.9 % of wild-type reference; in experiment [2] it was 78.4 % of wild-type reference; in [3], 78.7 % of wild-type reference; in experiment [4] it was 76.6 % of wild-type reference. The “Corrected response (RU)” value was 421 RU in [5], 1010 RU in experiment [6] and 163 RU in [7]. Further, the “Mean Absorbance” value was 0.076 absorbance (450 nm) in experiment [9] and 0.083 absorbance (450 nm) in [10]. For the same molecule, the “Mean binding activity (% of wild-type reference)” value in experiment [13] is 34.1 % of wild-type reference.

B4: anti-CD20 (rituximab) human IgG1 L234T/L235T/G236R (antibody)
heavy: QVQLQQPGAELVKPGASVKMSCKASGYTFTSYNMHWVKQTPGRGLEWIGAIYPGNGDTSYNQKFKGKATLTADKSSSTAYMQLSSLTSEDSAVYYCARSTYYGGDWYFNVWGAGTTVTVSSASTKGPSVFPLAPSSKSTSGGTAALGCLVKDYFPEPVTVSWNSGALTSGVHTFPAVLQSSGLYSLSSVVTVPSSSLGTQTYICNVNHKPSNTKVDKKVEPKSCDKTHTCPPCPAPETTRGPSVFLFPPKPKDTLMISRTPEVTCVVVDVSHEDPEVKFNWYVDGVEVHNAKTKPREEQYNSTYRVVSVLTVLHQDWLNGKEYKCKVSNKALPAPIEKTISKAKGQPREPQVYTLPPSRDELTKNQVSLTCLVKGFYPSDIAVEWESNGQPENNYKTTPPVLDSDGSFFLYSKLTVDKSRWQQGNVFSCSVMHEALHNHYTQKSLSLSPGK
light: B1 light
notes: EU numbering; also called 2-63; 1-165; copies: 2 + 2
B4: the “Corrected and normalised response (% of wild-type reference)” value in [1] was 93 % of wild-type reference; in experiment [2], 96 % of wild-type reference; in experiment [3], 95.1 % of wild-type reference; in experiment [4], 88.1 % of wild-type reference. Moreover, the “Mean Absorbance” value in experiment [8] was 0.068 absorbance (450 nm); in experiment [9] it was 0.077 absorbance (450 nm); in experiment [10] it was 0.095 absorbance (450 nm). Also, the “Mean binding activity (% of wild-type reference)” value in experiment [13] is 150 % of wild-type reference.

B5: anti-CD3 human IgG1 L234S/L235T/G236R (antibody)
heavy: not shown
light: QIVLTQSPAIMSASPGEKVTMTCSASSSVSYMNWYQQKSGTSPKRWIYDTSKLASGVPAHFRGSGSGTSYSLTISGMEAEDAATYYCQQWSSNPFTFGSGTKLEIKRTVAAPSVFIFPPSDEQLKSGTASVVCLLNNFYPREAKVQWKVDNALQSGNSQESVTEQDSKDSTYSLSSTLTLSKADYEKHKVYACEVTHQGLSSPVTKSFNRGEC
notes: also called 3-52; copies: 2 + 2
On to B5, for which the binding result in [14], in experiment [15], in [16], in [17] and in experiment [18] was “no binding (tested: 100 µg/mL)” in each case. The “Mean Absorbance” value in experiment [19] stood at 1.38 absorbance.

B6: anti-CD3 human IgG1 L234A/L235A/P329G (LALAPG reference) (antibody)
heavy: not shown
light: B5 light
notes: also called 3-66; copies: 2 + 2
Consider B6, for which the binding result in experiment [14] was “binds”. The “Mean Absorbance” value in experiment [19] was 1.13 absorbance.

B7: anti-CD3 human IgG1 L234A/L235A (LALA) (antibody)
heavy: not shown
light: B5 light
notes: also called 3-65; copies: 2 + 2
On to B7, for which the binding result in experiment [14] and in experiment [16] was “binds” in each case. Also, the “Mean Absorbance” value in experiment [19] came to 1.07 absorbance.

B8: anti-CD3 human IgG1 N297Q (aglycosyl) (antibody)
heavy: not shown
light: B5 light
notes: also called 3-67; copies: 2 + 2
Take B8: the binding result in experiment [14] and in experiment [15] was “binds” in each case. In addition, in [19], the “Mean Absorbance” value was 0.749 absorbance.
